Reference: patent US20220098307A1 (WUHAN YZY BIOPHARMA, published 2022)
Numbering of substitutions follows the chain as printed. Numbers in names are those of the source. Like-named read-outs stand apart in the source and are kept apart here.

Assays:
Monkey CD3 [1] = biological target: T1, Monkey CD3 (monkey); assay: flow cytometry, monkey T cells
T1 construct: whole, on cells; also called CD3 of monkey CD3 positive T cells

Human CD38 = Human CD38 (human, UniProt P28907 43-300); assay: flow cytometry, MM.1S or RPMI 8226 cells
Description: (§1) 1) Cell preparation: T cells isolated from CD3-positive human whole blood were used for a CD3 end affinity detection of multifunctional antibody molecule; positive tumor cells of corresponding antigen were used for detecting affinity of tumor antigen; for example, CD38-positive MM. 1S cells (purchased from the Cell Resource Center of Shanghai Institutes for Biological Sciences, Chinese Academy of Sciences) or RPMI 8226 cells (purchased from the Cell Resource Center of Shanghai Institutes for Biological Sciences, Chinese Academy of Sciences) were used for CD38 antigen detection, and PD-L1 positive H358 cells (purchased from the Cell Resource Center of Shanghai Institutes for Biological Sciences, Chinese Academy of Sciences) were used for PD-L1 antigen detection, and so on. The cells were resuspended with 1% FBS-PBS, adjusted to a density of 4×10⁶/ml, and 50 μl of cells were taken from each well, and then plated at 2×10⁵ per well. Cell plating was operated on ice
(§2) 2) Addition of the antibody: according to the experimental design, the antibody was diluted gradually, and dilution of antibody was operated on ice. For example, the initial concentration of antibody for dilution was 3000 nM, and the antibody was diluted by 3 times with 11 concentration gradients. The diluted antibody was added to a cell well at 50 μl per well, mixed well, and shaked and incubated at 4° C. 1100 rpm/min for 2 h; after washing, the cells were resuspend in 1% FBS-PBS, and a diluted secondary antibody PE anti-human IgG FC (Biolegend, 409304) was added with a final concentration of 8 ug/ml and a volume of 50 μl/well. At the same time, a well only added with cells and secondary antibody was set as a control, the components were mixed well, and incubated under shaking at 1100 rpm/min at 4° C. for 1 h;
(§3) 5) Data analysis: the data was analyzed by a flow analysis software FlowJo 7.6 thereby obtaining an average fluorescence intensity of the specific antibody concentration, plotted by a Graphpad Prism 5 with the antibody concentration (nM) as an abscissa and the average fluorescence intensity as an ordinate; the EC50 value was calculated by the method of One site—Specific binding, and the EC50 value indicated the cell affinity of the antibody to the corresponding target antigen.

human CEA [2] = biological target: T2, human CEA (human, UniProt P06731 35-685); assay: flow cytometry, human tumor cells (CEA+)
T2 sequence: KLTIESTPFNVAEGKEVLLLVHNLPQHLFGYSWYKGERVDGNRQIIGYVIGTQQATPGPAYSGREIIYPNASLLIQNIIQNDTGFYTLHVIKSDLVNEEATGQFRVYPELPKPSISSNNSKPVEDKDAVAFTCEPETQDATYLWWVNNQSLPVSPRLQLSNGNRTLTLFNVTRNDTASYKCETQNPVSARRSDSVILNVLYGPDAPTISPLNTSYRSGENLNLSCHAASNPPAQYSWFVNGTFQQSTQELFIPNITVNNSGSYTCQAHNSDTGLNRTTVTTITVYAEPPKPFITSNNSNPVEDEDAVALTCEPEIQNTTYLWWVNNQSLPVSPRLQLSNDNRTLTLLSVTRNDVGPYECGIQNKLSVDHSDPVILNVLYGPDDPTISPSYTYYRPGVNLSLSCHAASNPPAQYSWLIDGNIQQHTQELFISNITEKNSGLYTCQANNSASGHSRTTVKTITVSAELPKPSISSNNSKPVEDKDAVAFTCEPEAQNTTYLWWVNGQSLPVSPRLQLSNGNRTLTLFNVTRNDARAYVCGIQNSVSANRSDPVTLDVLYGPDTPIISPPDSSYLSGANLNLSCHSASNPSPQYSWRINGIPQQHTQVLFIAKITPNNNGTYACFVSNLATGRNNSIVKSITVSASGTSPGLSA
Description: as §1, §2, §3

Human CD3ε = biological target: T3, Human CD3ε (human, UniProt P07766 23-126); assay: flow cytometry, human T cells
T3 construct: CD3 on T cells isolated from human whole blood
How it was run: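 Antibody titrations (11 points, 3-fold from 3000 nM) incubated 2 h at 4° C with 2×10⁵ target cells per well—T cells for CD3, antigen-positive tumor lines such as MM.1S or RPMI 8226 for CD38.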

Monkey CD3 [3] = biological target: T1, Monkey CD3; assay: flow cytometry, monkey T cells; remark: listed apart in the source
human CEA [4] = biological target: T2, human CEA; assay: flow cytometry, human tumor cells (table of the CEA series)
Description: as §1, §2, §3

B1: CD38-M1-FES-3 (bispecific antibody)
chain: not shown
heavy: not shown
light: DIELTQPPSVSVAPGQTARISCSGDNLRHYYVYWYQQKPGQAPVLVIYGDSKRPSGIPERFSGSNSGNTATLTISGTQAEDEADYYCQTYTGGASLVFGGGTKLTVLGQGQPKAAPSVTLFPPSSEELQANKATLVCLISDFYPGAVTVAWKADSSPVKAGVETTTPSKQSNNKYAASSYLSLTPEQWKSHRSYSCQVTHEGSTVEKTVAPTECS
notes: structure 1; CD38 (MOR) x CD3 (I2C); CH2 FES; CL is Lc3
Monkey CD3 [1]
  EC50: 34 nM
Human CD38
  EC50: 11.1 nM

B2: CEA-M3-WT (bispecific antibody)
fusion heavy: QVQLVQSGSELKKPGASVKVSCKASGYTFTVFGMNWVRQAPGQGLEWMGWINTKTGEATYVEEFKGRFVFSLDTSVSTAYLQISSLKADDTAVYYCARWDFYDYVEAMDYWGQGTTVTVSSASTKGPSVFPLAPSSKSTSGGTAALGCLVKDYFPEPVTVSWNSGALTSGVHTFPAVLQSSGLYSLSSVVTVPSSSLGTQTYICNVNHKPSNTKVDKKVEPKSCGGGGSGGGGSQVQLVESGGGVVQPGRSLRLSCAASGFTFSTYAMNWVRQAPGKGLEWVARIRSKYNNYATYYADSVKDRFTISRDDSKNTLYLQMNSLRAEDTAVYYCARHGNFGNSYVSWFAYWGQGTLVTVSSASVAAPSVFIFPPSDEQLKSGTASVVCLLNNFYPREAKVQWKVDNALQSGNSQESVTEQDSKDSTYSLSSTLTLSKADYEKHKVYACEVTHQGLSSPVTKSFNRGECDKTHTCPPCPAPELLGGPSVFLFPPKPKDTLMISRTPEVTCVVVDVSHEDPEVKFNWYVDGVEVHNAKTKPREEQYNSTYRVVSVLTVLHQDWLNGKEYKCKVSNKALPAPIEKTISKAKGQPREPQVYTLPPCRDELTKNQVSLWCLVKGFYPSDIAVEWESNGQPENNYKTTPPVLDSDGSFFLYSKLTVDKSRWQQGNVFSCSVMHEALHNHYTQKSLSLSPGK
cross light: QTVVTQEPSLTVSPGGTVTLTCRSSTGAVTTSNYANWVQQKPGQAPRGLIGGTNKRAPGVPARFSGSLLGGKAALTLSGVQPEDEAEYYCALWYSNLWVFGGGTKVEIKSSASTKGPSVFPLAPSSKSTSGGTAALGCLVKDYFPEPVTVSWNSGALTSGVHTFPAVLQSSGLYSLSSVVTVPSSSLGTQTYICNVNHKPSNTKVDKKVEPKSC
heavy: QVQLVQSGSELKKPGASVKVSCKASGYTFTVFGMNWVRQAPGQGLEWMGWINTKTGEATYVEEFKGRFVFSLDTSVSTAYLQISSLKADDTAVYYCARWDFYDYVEAMDYWGQGTTVTVSSASTKGPSVFPLAPSSKSTSGGTAALGCLVKDYFPEPVTVSWNSGALTSGVHTFPAVLQSSGLYSLSSVVTVPSSSLGTQTYICNVNHKPSNTKVDKKVEPKSCDKTHTCPPCPAPELLGGPSVFLFPPKPKDTLMISRTPEVTCVVVDVSHEDPEVKFNWYVDGVEVHNAKTKPREEQYNSTYRVVSVLTVLHQDWLNGKEYKCKVSNKALPAPIEKTISKAKGQPREPQVCTLPPSRDELTKNQVSLSCAVKGFYPSDIAVEWESNGQPENNYKTTPPVLDSDGSFFLVSKLTVDKSRWQQGNVFSCSVMHEALHNRFTQKSLSLSPGK
light: DIQMTQSPSSLSASVGDRVTITCKASQNVGTNVAWYQQKPGKAPKLLIYSASYRYSGVPSRFSGSGSGTDFTFTISSLQPEDIATYYCHQYYTYPLFTFGQGTKVEIKRTVAAPSVFIFPPSDEQLKSGTASVVCLLNNFYPREAKVQWKVDNALQSGNSQESVTEQDSKDSTYSLSSTLTLSKADYEKHKVYACEVTHQGLSSPVTKSFNRGEC
notes: structure 3; CEA x CD3; CH2 WT; copies: 1 + 1 + 1 + 2
Human CEA [2]
  EC50: 35.8 nM
Human CD3ε
  EC50: 624 nM
Monkey CD3 [3]
  EC50: 757 nM

B3: M3IC-WT (bispecific antibody)
fusion heavy: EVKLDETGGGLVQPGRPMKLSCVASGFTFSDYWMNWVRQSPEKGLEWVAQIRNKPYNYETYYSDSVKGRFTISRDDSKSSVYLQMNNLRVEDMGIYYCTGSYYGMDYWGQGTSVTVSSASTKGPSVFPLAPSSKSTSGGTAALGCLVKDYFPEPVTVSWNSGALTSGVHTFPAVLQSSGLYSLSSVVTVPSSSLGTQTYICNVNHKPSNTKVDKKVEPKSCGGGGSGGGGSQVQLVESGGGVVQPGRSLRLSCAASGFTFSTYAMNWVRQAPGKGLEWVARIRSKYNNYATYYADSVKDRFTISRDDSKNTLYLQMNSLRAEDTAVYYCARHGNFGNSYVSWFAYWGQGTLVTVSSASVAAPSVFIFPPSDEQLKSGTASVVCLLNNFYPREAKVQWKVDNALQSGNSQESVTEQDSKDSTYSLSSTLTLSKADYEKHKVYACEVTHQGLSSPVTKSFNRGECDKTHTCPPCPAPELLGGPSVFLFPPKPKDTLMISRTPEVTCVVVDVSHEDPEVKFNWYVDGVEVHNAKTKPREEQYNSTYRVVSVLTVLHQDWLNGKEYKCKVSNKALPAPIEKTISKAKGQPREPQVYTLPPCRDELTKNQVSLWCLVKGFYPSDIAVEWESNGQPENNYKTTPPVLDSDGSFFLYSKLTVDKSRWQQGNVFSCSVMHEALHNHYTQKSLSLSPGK
cross light: B2 cross light
heavy: EVKLDETGGGLVQPGRPMKLSCVASGFTFSDYWMNWVRQSPEKGLEWVAQIRNKPYNYETYYSDSVKGRFTISRDDSKSSVYLQMNNLRVEDMGIYYCTGSYYGMDYWGQGTSVTVSSASTKGPSVFPLAPSSKSTSGGTAALGCLVKDYFPEPVTVSWNSGALTSGVHTFPAVLQSSGLYSLSSVVTVPSSSLGTQTYICNVNHKPSNTKVDKKVEPKSCDKTHTCPPCPAPELLGGPSVFLFPPKPKDTLMISRTPEVTCVVVDVSHEDPEVKFNWYVDGVEVHNAKTKPREEQYNSTYRVVSVLTVLHQDWLNGKEYKCKVSNKALPAPIEKTISKAKGQPREPQVCTLPPSRDELTKNQVSLSCAVKGFYPSDIAVEWESNGQPENNYKTTPPVLDSDGSFFLVSKLTVDKSRWQQGNVFSCSVMHEALHNRFTQKSLSLSPGK
light: DVVMTQTPLSLPVSLGDQASISCRSSQSLVHSNGNTYLRWYLQKPGQSPKVLIYKVSNRFSGVPDRFSGSGSGTDFTLKISRVEAEDLGVYFCSQSTHVPWTFGGGTKLEIKRTVAAPSVFIFPPSDEQLKSGTASVVCLLNNFYPREAKVQWKVDNALQSGNSQESVTEQDSKDSTYSLSSTLTLSKADYEKHKVYACEVTHQGLSSPVTKSFNRGEC
notes: structure 3 isotype control; CH2 WT; copies: 1 + 1 + 1 + 2
Human CD3ε
  EC50: 637 nM
Monkey CD3 [3]
  EC50: 709 nM
Human CEA [4]
  binding result: no binding

B4: CEA-M3-AAG (bispecific antibody)
fusion heavy: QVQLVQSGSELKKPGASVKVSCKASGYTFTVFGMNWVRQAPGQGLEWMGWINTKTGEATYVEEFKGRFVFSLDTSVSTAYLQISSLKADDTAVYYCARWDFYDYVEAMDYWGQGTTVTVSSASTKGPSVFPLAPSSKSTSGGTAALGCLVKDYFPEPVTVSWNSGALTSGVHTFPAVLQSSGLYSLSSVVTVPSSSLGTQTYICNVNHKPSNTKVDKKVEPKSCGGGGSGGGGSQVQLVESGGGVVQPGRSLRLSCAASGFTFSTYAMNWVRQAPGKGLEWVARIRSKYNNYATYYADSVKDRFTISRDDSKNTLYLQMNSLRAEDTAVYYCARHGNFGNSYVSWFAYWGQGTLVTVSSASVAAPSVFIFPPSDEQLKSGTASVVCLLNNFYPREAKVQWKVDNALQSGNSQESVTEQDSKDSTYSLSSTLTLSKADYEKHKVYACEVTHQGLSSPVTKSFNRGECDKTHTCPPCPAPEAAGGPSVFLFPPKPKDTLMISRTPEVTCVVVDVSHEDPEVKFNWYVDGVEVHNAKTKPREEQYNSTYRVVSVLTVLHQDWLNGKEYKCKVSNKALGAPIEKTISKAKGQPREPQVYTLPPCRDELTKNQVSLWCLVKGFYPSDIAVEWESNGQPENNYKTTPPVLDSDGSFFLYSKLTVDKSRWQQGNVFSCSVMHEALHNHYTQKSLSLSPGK
cross light: B2 cross light
heavy: B2 heavy with L238A, L239A, P333G
light: B2 light
notes: structure 3; CEA x CD3; CH2 AAG; copies: 1 + 1 + 1 + 2
Human CEA [2]
  EC50: 30.1 nM
Human CD3ε
  EC50: 646 nM
Monkey CD3 [3]
  EC50: 662 nM

B5: CEA-M3-FES (bispecific antibody, human IgG1, kappa)
fusion heavy: QVQLVQSGSELKKPGASVKVSCKASGYTFTVFGMNWVRQAPGQGLEWMGWINTKTGEATYVEEFKGRFVFSLDTSVSTAYLQISSLKADDTAVYYCARWDFYDYVEAMDYWGQGTTVTVSSASTKGPSVFPLAPSSKSTSGGTAALGCLVKDYFPEPVTVSWNSGALTSGVHTFPAVLQSSGLYSLSSVVTVPSSSLGTQTYICNVNHKPSNTKVDKKVEPKSCGGGGSGGGGSQVQLVESGGGVVQPGRSLRLSCAASGFTFSTYAMNWVRQAPGKGLEWVARIRSKYNNYATYYADSVKDRFTISRDDSKNTLYLQMNSLRAEDTAVYYCARHGNFGNSYVSWFAYWGQGTLVTVSSASVAAPSVFIFPPSDEQLKSGTASVVCLLNNFYPREAKVQWKVDNALQSGNSQESVTEQDSKDSTYSLSSTLTLSKADYEKHKVYACEVTHQGLSSPVTKSFNRGECDKTHTCPPCPAPEFEGGPSVFLFPPKPKDTLMISRTPEVTCVVVDVSHEDPEVKFNWYVDGVEVHNAKTKPREEQYNSTYRVVSVLTVLHQDWLNGKEYKCKVSNKALPASIEKTISKAKGQPREPQVYTLPPCRDELTKNQVSLWCLVKGFYPSDIAVEWESNGQPENNYKTTPPVLDSDGSFFLYSKLTVDKSRWQQGNVFSCSVMHEALHNHYTQKSLSLSPGK
cross light: B2 cross light
heavy: B2 heavy with L238F, L239E, P335S
light: B2 light
notes: structure 3; CEA x CD3; CH2 FES; copies: 1 + 1 + 1 + 2
Human CEA [2]
  EC50: 42.9 nM
Human CD3ε
  EC50: 639 nM
Monkey CD3 [3]
  EC50: 732 nM

B6: M3IC-NA (bispecific antibody)
fusion heavy: EVKLDETGGGLVQPGRPMKLSCVASGFTFSDYWMNWVRQSPEKGLEWVAQIRNKPYNYETYYSDSVKGRFTISRDDSKSSVYLQMNNLRVEDMGIYYCTGSYYGMDYWGQGTSVTVSSASTKGPSVFPLAPSSKSTSGGTAALGCLVKDYFPEPVTVSWNSGALTSGVHTFPAVLQSSGLYSLSSVVTVPSSSLGTQTYICNVNHKPSNTKVDKKVEPKSCGGGGSGGGGSQVQLVESGGGVVQPGRSLRLSCAASGFTFSTYAMNWVRQAPGKGLEWVARIRSKYNNYATYYADSVKDRFTISRDDSKNTLYLQMNSLRAEDTAVYYCARHGNFGNSYVSWFAYWGQGTLVTVSSASVAAPSVFIFPPSDEQLKSGTASVVCLLNNFYPREAKVQWKVDNALQSGNSQESVTEQDSKDSTYSLSSTLTLSKADYEKHKVYACEVTHQGLSSPVTKSFNRGECDKTHTCPPCPAPELLGGPSVFLFPPKPKDTLMISRTPEVTCVVVDVSHEDPEVKFNWYVDGVEVHNAKTKPREEQYASTYRVVSVLTVLHQDWLNGKEYKCKVSNKALPAPIEKTISKAKGQPREPQVYTLPPCRDELTKNQVSLWCLVKGFYPSDIAVEWESNGQPENNYKTTPPVLDSDGSFFLYSKLTVDKSRWQQGNVFSCSVMHEALHNHYTQKSLSLSPGK
cross light: B2 cross light
heavy: B3 heavy with N298A
light: B3 light
notes: structure 3 isotype control; CH2 N297A; copies: 1 + 1 + 1 + 2
Human CD3ε
  EC50: 739 nM
Monkey CD3 [3]
  EC50: 935 nM
Human CEA [4]
  binding result: no binding

B7: CEA-M3-NA (bispecific antibody, human IgG1, kappa, N297A)
fusion heavy: B5 fusion heavy with F480L, E481L, N543A, S577P
cross light: B2 cross light
heavy: B2 heavy with N301A
light: B2 light
notes: structure 3; CEA x CD3; CH2 N297A; copies: 1 + 1 + 1 + 2
Human CEA [2]
  EC50: 32.1 nM
Human CD3ε
  EC50: 688 nM
Monkey CD3 [3]
  EC50: 798 nM

B8: M3IC-AAG (bispecific antibody)
fusion heavy: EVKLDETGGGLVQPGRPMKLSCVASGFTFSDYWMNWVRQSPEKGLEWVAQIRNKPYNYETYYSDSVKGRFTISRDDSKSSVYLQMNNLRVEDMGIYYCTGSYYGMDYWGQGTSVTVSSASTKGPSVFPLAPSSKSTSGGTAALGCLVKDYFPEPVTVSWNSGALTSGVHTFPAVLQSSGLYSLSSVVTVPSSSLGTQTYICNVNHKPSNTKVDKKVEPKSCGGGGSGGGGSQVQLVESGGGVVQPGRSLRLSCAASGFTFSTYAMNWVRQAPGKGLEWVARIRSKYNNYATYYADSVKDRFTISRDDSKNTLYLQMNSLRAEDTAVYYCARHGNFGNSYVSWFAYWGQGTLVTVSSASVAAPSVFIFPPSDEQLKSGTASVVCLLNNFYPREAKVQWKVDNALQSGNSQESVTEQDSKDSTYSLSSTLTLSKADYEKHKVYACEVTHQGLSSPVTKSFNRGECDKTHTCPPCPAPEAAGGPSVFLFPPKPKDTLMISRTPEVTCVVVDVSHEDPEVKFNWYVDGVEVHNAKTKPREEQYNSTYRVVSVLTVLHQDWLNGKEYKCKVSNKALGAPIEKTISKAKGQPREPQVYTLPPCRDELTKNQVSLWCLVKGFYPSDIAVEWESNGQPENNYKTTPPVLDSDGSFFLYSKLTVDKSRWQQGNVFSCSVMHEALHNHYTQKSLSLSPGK
cross light: B2 cross light
heavy: B3 heavy with L235A, L236A, P330G
light: B3 light
notes: structure 3 isotype control; CH2 AAG; copies: 1 + 1 + 1 + 2
Human CD3ε
  EC50: 606 nM
Monkey CD3 [3]
  EC50: 659 nM
Human CEA [4]
  binding result: no binding

B9: M3IC-FES (bispecific antibody)
fusion heavy: B6 fusion heavy with L477F, L478E, A540N, P574S
cross light: B2 cross light
heavy: B3 heavy with L235F, L236E, P332S
light: B3 light
notes: structure 3 isotype control; CH2 FES; copies: 1 + 1 + 1 + 2
Human CD3ε
  EC50: 662 nM
Monkey CD3 [3]
  EC50: 671 nM
Human CEA [4]
  binding result: no binding
